Here are results for one protein from FireProtDB (doi:10.1021/bi049320b).

The conditions of this series: Bacillus amyloliquefaciens, pH 8, 25 °C, Urea, Fluorescence, Tris-HCl 30 mM, whole UniProt chain shown.

B1: Barstar wild type, P11540 (protein)
chain: MKKAVINGEQIRSISDLHQTLKKELALPEYYGENLDALWDCLTGWVEYPLVLEWRQFEQSKQLTENGAESVLQVFREAKAEGCDITIILS
Consider B1, for which the denaturant m value turned out to be 1.16 kcal/mol/M and the unfolding free energy was determined as 4.8 kcal/mol. Moreover, under “KCl 0.5 M”, the denaturant m value stood at 1.12 kcal/mol/M and the unfolding free energy was found to be 5.8 kcal/mol. Besides, under “KCl 1.0 M”, the denaturant m value was found to be 1.19 kcal/mol/M and the unfolding free energy worked out at 6.9 kcal/mol.
